Where “and” joins values, the source holds several entries; their conditions need not be identical. Identical values can stand only once.

Common to all, as to assay: ELISA: antibody coated, supernatant, anti-His-HRP
In general terms: ELISA stands for enzyme-linked immunosorbent assay.

The target of test [1] is CD9-ECL2 mutant M1 (human, with rat residues) (UniProt P21926).
The target in test [2] is CD9-ECL2 mutant M4 (human, with rat residues) (UniProt P21926).
Test [3] addresses p-Myc-His CD9-ECL2 wild type (human).

Chain of CD9-ECL2 mutant M1 (human, with rat residues) (P21926 other isoform, or with tags, fused parts or gaps mutant): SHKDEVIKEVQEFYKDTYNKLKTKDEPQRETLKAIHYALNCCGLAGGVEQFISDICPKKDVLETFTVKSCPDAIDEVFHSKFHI
Chain of CD9-ECL2 mutant M4 (human, with rat residues) (P21926 other isoform, or with tags, fused parts or gaps mutant): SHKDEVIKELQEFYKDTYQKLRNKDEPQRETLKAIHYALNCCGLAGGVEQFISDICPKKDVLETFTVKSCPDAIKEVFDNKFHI
Chain of p-Myc-His CD9-ECL2 wild type (human) (chain, as listed by the source limits assumed): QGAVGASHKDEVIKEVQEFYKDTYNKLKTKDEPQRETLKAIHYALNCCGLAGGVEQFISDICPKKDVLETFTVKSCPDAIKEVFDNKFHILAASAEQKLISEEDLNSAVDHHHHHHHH

normal mouse IgG (antibody): the OD490 in test [1] is 0.046 and 0.056; in test [2] it was 0.04 and 0.047; in test [3], 0.044 and 0.053.
As for “ALB6 (anti-CD9, Beckman coulter) (antibody)”, the OD490 in test [1] is 0.334 and 0.383; in test [2], 0.485 and 0.574; in test [3], 0.427 and 0.506.
Turning to normal human IgG (antibody), the results for the OD490 in test [1], in test [2] and in test [3] were 0.054, 0.053 and 0.056, respectively.
